From patent publication US7385023B1, “Cancer immunotherapy and diagnosis using cytochrome P450 1B1” (Trustees of Boston University, priority 2000, dated 2008)
Peptide text beside a SMILES is read from it.

Key:
T2 cells = assay: 51Cr release cytotoxicity assay, peptide-pulsed T2 cells; format: cell-based; conditions: for recognition by CYP239-specific CTL of target cells pulsed with heteroclitic peptide: CTL generated against wild type CYP239
Description: To assess cytolytic function CTL lines were used after at least four antigenic stimulations in standard ^51Cr release assays as previously described (Vonderheide et al., Immunity 10:673-679, 1999).

[1] = test system: primary follicular lymphoma (FL) cells; assay: 51Cr release cytotoxicity assay, primary follicular lymphoma; format: cell-based, human; conditions: HLA-A2+ CYP1B1+ FL, CTL from healthy donors
Procedure: CYP1B1-specific CTLs were then evaluated for cytotoxicity against primary tumor tissue.

[2] = test system: T cells from HLA-A2+ healthy donors; conditions: for healthy donors with peptide-specific T cells detected / expansion: n=8, day 10
[3] = test system: T cells from HLA-A2+ multiple myeloma patients; conditions: n=10
[4] = test system: HLA-A2+ ovarian carcinoma cell line 36M
Description: To assess cytolytic function CTL lines were used after at least four antigenic stimulations in standard ^51Cr release assays as previously described (Vonderheide et al., Immunity 10:673-679, 1999). […] Monocytes as targets were isolated from PBMC by RosetteSep® (Stem Cell Technologies, Vancouver) following the manufacturer's recommendations.

HLA-A*0201 = HLA-A*0201 (Homo sapiens, UniProt P04439, D140Y/D185E/D98H/E176V/E277Q/G131W/G231S/I119V/I121R/I166T/I218V/L300P/L318F/N151K/N90K/P208A/P217A/Q86G/Q94H/R138H/R169H/T345S); assay: HLA-A2/peptide complex stability on TAP-deficient T2 cells; format: binding
Procedure: In particular, T2 cells were incubated with peptide in serum-free medium for up to 18 hours, harvested, washed, and subsequently stained with FITC-labeled anti-HLA-A2 mAb BB7.2 (maximum peptide binding). Increase in fluorescence intensity was determined as a function of peptide binding. For analysis of complex stability, T2 cells were cultured in serum-free media for an additional 2, 4, 6, or 24 hours, and subsequently analyzed for HLA-A2 expression by flow cytometry.
The T2 assay described above was used to determine binding and dissociation rate of heteroclitic peptides engineered for optimal binding to HLA molecules.

[5] = test system: CD8+ T cells of HLA-A2+ cancer patients; assay: Ex vivo generation of peptide-specific CTL from cancer patients; format: cell-based, human
Description: Similar to experiments described for healthy donors, we next attempted to generate CYP1B1-specific CTL from peripheral blood of cancer patients. […] Due to lower numbers of PBMC available, CYP246-specific CTL cultures were only initiated in patients 3 and 4. […] Because autologous tumor cells were not available from these patients, we tested the same FL samples described above as primary tumor targets. CYP239-specific CTL from patient 1 lysed both HLA-A2^+ FL samples but not the HLA-A2^− (18% vs. 0% at an E:T ration of 30:1).

[6] = test system: HLA-A2+ primary ALL cells; assay: 51Cr release cytotoxicity assay, primary ALL; format: cell-based, human
Procedure: Peptides were pulsed onto TAP-deficient T2 cells, and the maximum binding and the stability over time were assessed by flow cytometry. […] Additional experiments were carried out to characterize these peptides, in particular, CYP190.

[7] = test system: CD8+ T cells of healthy HLA-A2+ donors; assay: Ex vivo generation of peptide-specific CTL from healthy HLA-A2+ donors
Procedure: From a single blood draw, professional APCs, including DCs and CD40-activated B cells, are generated, and the remaining PBMCs are enriched for CD8+ T cells. T cells are primarily stimulated with peptide-pulsed DC, and repeatedly stimulated with peptide-pulsed CD40-B cells. Peptide-specificity and HLA-restriction is analyzed after a total of 2-5 stimulations, depending on the antigen under study.
CTL were generated as previously described (Vonderheide et al., Immunity 10:673-679, 1999), CD8^+ T cells (>80% CD8^+, >95% CD3^+, <2.0% CD4^+, and <5% CD56^+) were isolated from PBMC by negative selection using magnetic beads. B cells were activated via CD40, and DC were prepared from peripheral blood monocytes with IL-4 and GM-CSF (Schultze et al., J. Clin. Invest. 100:2757-2765, 1997). DC were harvested after 7 days, pulsed with peptide (40 μg/ml) and β2-microglobulin (3 μg/ml) for 2 hr at 37° C., irradiated (33 Gy), and added to autologous CD8+ T cells at a T:DC ratio of 20:1 in RPMI media supplemented with 10% human AB serum, 2 mM glutamine, 15 μg/ml gentamicin, 20 mMHEPES, and 15 ng/ml IL-7 (Endogen, Woburn, Mass.). At day 7 and weekly thereafter, T cell cultures were harvested and restimulated with irradiated (33 Gy), peptide-pulsed (10 μg/ml) autologous CD40-activated B cells. […]

[8] = target: T1, HLA-A*0201 on the surface of TAP-deficient T2 cells (human); assay: T2 cell assay of HLA-A*0201/peptide complex stability, flow cytometry
T1 construct: detected with FITC-labeled mAb BB7.2; also called HLA-A2

[9] = target: T1, HLA-A*0201 on the surface of …; assay: TAP-deficient T2 cell assay, flow cytometry
[10] = target: T1, HLA-A*0201 on the surface of …; assay: T2 cell HLA-A*0201 stabilisation assay, flow cytometry with FITC-BB7.2

CSCC[C@H](NC(=O)[C@@H](NC(=O)[C@H](CC(=O)O)NC(=O)[C@@H](NC(=O)[C@H](CC(C)C)NC(=O)[C@@H](N)Cc1ccc(O)cc1)C(C)C)C(C)C)C(=O)N1CCC[C@H]1C(=O)N[C@@H](Cc1c[nH]c2ccccc12)C(=O)N[C@H](C(=O)O)C(C)C [CYP239-19] (H-YLVDVMPWV-OH; N-terminus and C-terminus assumed)
recognition by CYP239-specific CTL of target cells pulsed with heteroclitic peptide (T2 cells): equally well

CSCC[C@H](NC(=O)[C@@H](NC(=O)[C@H](CC(=O)O)NC(=O)[C@H](Cc1ccc(O)cc1)NC(=O)[C@H](CC(C)C)NC(=O)[C@@H](N)Cc1ccc(O)cc1)C(C)C)C(=O)N1CCC[C@H]1C(=O)N[C@@H](Cc1c[nH]c2ccccc12)C(=O)N[C@H](C(=O)O)C(C)C [CYP239-139] (H-YLYDVMPWV-OH; N-terminus and C-terminus assumed)
recognition by CYP239-specific CTL of target cells pulsed with heteroclitic peptide (T2 cells): do not recognize

CSCC[C@H](NC(=O)[C@@H](NC(=O)[C@H](CC(=O)O)NC(=O)[C@@H](NC(=O)[C@H](CC(C)C)NC(=O)[C@@H](N)CO)C(C)C)C(C)C)C(=O)N1CCC[C@H]1C(=O)N[C@@H](Cc1c[nH]c2ccccc12)C(=O)N[C@@H](CC(C)C)C(=O)O [CYP239] (H-SLVDVMPWL-OH)
cytotoxicity for HLA-A2+ FL by peptide-specific CTL [1]: cytotoxic | healthy donors with peptide-specific T cells detected / expansion [2]: No expansion | patients with reactive T cells >0.05% on day 10 [3]: 4 | cytotoxicity against 36M by peptide-specific CTL [4]: specific cytotoxicity

CC(C)C[C@H](NC(=O)[C@@H](N)Cc1c[nH]c2ccccc12)C(=O)N[C@@H](CCC(N)=O)C(=O)N[C@@H](Cc1ccc(O)cc1)C(=O)N[C@@H](Cc1ccccc1)C(=O)N1CCC[C@H]1C(=O)N[C@@H](CC(N)=O)C(=O)N1CCC[C@H]1C(=O)N[C@H](C(=O)O)C(C)C [CYP246] (H-WLQYFPNPV-OH; N-terminus and C-terminus assumed)
cytotoxicity for HLA-A2+ FL by peptide-specific CTL [1]: cytotoxic | highest level of peptide-specific T cells in one healthy donor ([2]; day 10): 0.5% | healthy donors with peptide-specific T cells detected / expansion [2]: 2 | patients with reactive T cells >0.05% on day 10 [3]: 5 | cytotoxicity against 36M by peptide-specific CTL [4]: specific cytotoxicity

FLDPRPLTV [CYP190]
HLA-A2/peptide complex stability (HLA-A*0201): longest half-life on the cell surface | time after peptide withdrawal at which peptide/A2 complexes can be detected (HLA-A*0201): ≥ 24 h | generation of peptide-specific CTL from cancer patients [5]: can be generated from HLA-A2^+ cancer patients | lysis of peptide-pulsed T2 cells by peptide-specific CTL (T2 cells; CTL from healthy donors): can lyse | lysis of HLA-A2+ primary ALL cells by peptide-specific CTL [6]: can lyse | generation of peptide-specific CTL from normal donors [7]: can be generated from normal HLA-A2^+ donors

B1: CYP239-139 heteroclitic peptide (YLYDVMPWV) (peptide)
peptide: YLYDVMPWV
notes: Designed variant of CYP239 changed at positions 1, 3 and 9
T2 assay result at 0 h post-pulsing [8]: 2 | T2 assay result at 2 h post-pulsing [8]: 1.51 | T2 assay result at 4 h post-pulsing [8]: 1.24 | T2 assay result at 6 h post-pulsing [8]: 1.16 | T2 assay result at 24 h post-pulsing [8]: 0.73

B2: CYP239-19 heteroclitic peptide (YLVDVMPWV) (peptide)
peptide: YLVDVMPWV
notes: Designed variant of CYP239 changed at positions 1 and 9
T2 assay result at 0 h post-pulsing [8]: 2.16 | T2 assay result at 2 h post-pulsing [8]: 1.57 | T2 assay result at 4 h post-pulsing [8]: 1.31 | T2 assay result at 6 h post-pulsing [8]: 1.13 | T2 assay result at 24 h post-pulsing [8]: 0.72

FLDPRPLTV [CYP190 peptide from cytochrome P450 1B1 (FLDPRPLTV)]
binding result [9]: binds

B3: CYP239 peptide from cytochrome P450 1B1 (SLVDVMPWL) (peptide)
peptide: SLVDVMPWL
notes: Synthetic peptide bought from Sigma Genosys
T2 assay result at 0 h post-pulsing [8]: 1.91 | T2 assay result at 2 h post-pulsing [8]: 1.37 | T2 assay result at 4 h post-pulsing [8]: 0.78 | T2 assay result at 6 h post-pulsing [8]: 0.58 | T2 assay result at 24 h post-pulsing [8]: 0.12 | Binding affinity [FI] (fluorescence index) [10]: 3.8

WLQYFPNPV [CYP246 peptide from cytochrome P450 1B1 (WLQYFPNPV)]
Binding affinity [FI] (fluorescence index) [10]: 3.4
